The record followed here is paper PMC3774798 (PLoS ONE, 2013).

One data set has as its target T1, PA4781HD-GYP (Pseudomonas aeruginosa, UniProt Q9HV27).
T1 construct: gene PA4781; HD-GYP domain, first 111 residues (REC domain) removed, His-tag (pET28b), E. coli BL21(DE3); mainly monomer
The data set can be described thus: RP-HPLC of nucleotides, turnover. To be noted: REC domain removed, not phosphorylated; pH 8, 30 °C, Mg2+ and/or Mn2+. Format: biochemical.

In data set [1] the test system is Nc1nc2c(ncn2[C@@H]2O[C@@H]3CO[P@](=O)(O)O[C@H]4[C@@H](O)[C@H](n5cnc6c(=O)[nH]c(N)nc65)O[C@@H]4CO[P@](=O)(O)O[C@H]3[C@H]2O)c(=O)[nH]1. As to the kind of experiment: purified protein.
Data set [2] deals with Nc1nc2c(ncn2[C@@H]2O[C@H](COP(=O)(O)O[C@H]3[C@@H](O)[C@H](n4cnc5c(=O)[nH]c(N)nc54)O[C@@H]3COP(=O)(O)O)[C@@H](O)[C@H]2O)c(=O)[nH]1. As to the kind of experiment: purified protein. The settings on record: Mg2+ and/or Mn2+.
Setting [3] is: 10 mM MgCl2 and 2.5 mM MnCl2, 50 mM Tris-HCl pH 8, 150 mM NaCl, 30 °C, 0.64 µM enzyme.
[4] abbreviates: 50 mM Tris-HCl pH 8, 150 mM NaCl, 30 °C, may be apparent value (about 30% c-di-GMP still bound to protein).
The mark [5] stands for this setting: protein phosphorylated with acetyl phosphate (extent unknown), pH 8, 30 °C.

T1 sequence (Q9HV27 112-393): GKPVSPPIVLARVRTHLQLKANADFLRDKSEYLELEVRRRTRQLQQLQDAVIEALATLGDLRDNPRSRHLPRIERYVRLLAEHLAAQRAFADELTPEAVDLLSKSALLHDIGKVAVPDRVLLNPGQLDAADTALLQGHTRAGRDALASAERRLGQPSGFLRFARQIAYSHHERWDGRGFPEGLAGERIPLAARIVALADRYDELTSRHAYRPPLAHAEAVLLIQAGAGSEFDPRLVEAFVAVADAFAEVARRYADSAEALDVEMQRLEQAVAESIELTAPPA

`Nc1nc2c(ncn2[C@@H]2O[C@@H]3COP(=O)(O)O[C@H]4[C@@H](O)[C@H](n5cnc6c(=O)[nH]c(N)nc65)O[C@@H]4COP(=O)(O)O[C@H]3[C@H]2O)c(=O)[nH]1` [c-di-GMP]: the “RP-HPLC of nucleotides, turnover” value at PA4781HD-GYP is on record as “displays little, but significant PDE activity”.
One may read the Km as the substrate concentration at which the rate is half of its maximum. The kcat is the maximal rate divided by the concentration of active sites. Consider PA4108 (Pseudomonas aeruginosa PAO1), for which the Km in data set [1] (setting [3]) worked out at 20 ± 5 µM; in data set [2] (setting [4]), 30 ± 9 µM. Further, the kcat in data set [1] (setting [3]) was 0.00015 ± 1e-05 s⁻¹; in data set [2] (setting [4]), 1.2±0.1x10^-3 s^-1.
With PA4781 (Pseudomonas aeruginosa PAO1), the Km was determined as 119 ± 30 µM in data set [1] (protein phosphorylated with acetyl phosphate (extent unknown), 10 mM MgCl2, pH 8, 30 °C) and 27 ± 8 µM in data set [2] (setting [5]). Moreover, the kcat in data set [2] (setting [5]) is given as 7.7±1x10^-4 s^-1.
